Measured values: patent US20210138066A1, “REMOTE-CONTROLLED IMAGE-GUIDED DRUG DELIVERY VIA ULTRASOUND-MODULATED MOLECULAR DIFFUSION” (California Institute of Technology, priority 2019, published 2021)

Assay: Payloads added to the reservoir: Stokes' diameter
Format: physicochemical

Adalimumab
Stokes' Diameter: 10 nm
